Results on three molecules are retold here after PMC10770396, “Dimerization of the 4Ig isoform of B7-H3 in tumor cells mediates enhanced proliferation and tumorigenic signaling” (Communications Biology, 2024).

Data set [1] concerns the molecule itself. Description: SEC; analytical SEC, Superdex 200 10/300, PBS + 0.1 M NaCl + 0.05% NaN3, flow 0.5 ml/min, protein at 100 μg/mL; apparent molecular weight from a calibration curve; monomer to dimer.
In data set [2] the target is T1, 4Ig-B7-H3-mEGFP (human), Q5ZPR3.
T1 chain: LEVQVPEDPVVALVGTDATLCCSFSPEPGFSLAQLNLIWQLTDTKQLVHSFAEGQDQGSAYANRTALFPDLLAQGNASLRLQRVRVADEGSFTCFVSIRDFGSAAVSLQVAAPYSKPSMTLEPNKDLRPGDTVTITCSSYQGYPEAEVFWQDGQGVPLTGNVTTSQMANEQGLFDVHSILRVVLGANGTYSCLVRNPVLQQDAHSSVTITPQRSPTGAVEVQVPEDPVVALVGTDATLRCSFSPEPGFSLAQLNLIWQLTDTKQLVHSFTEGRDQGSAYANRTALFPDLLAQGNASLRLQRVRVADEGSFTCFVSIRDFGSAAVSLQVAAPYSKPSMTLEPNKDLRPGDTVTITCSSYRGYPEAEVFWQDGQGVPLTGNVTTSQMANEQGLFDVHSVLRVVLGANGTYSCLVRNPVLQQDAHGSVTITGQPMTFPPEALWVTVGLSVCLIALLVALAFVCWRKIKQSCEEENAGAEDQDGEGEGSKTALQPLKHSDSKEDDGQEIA
The data set is described as follows: FRET or BRET; homo-FRET fluorescence lifetime imaging (FRET-FLIM, TCSPC) of mEGFP fusions in fixed, transiently transfected HeLa CD276-/- KO cells; bi-exponential fit. Conditions: remark: other sources report otherwise. (In BRET a luciferase serves as donor, and the signal depends on an acceptor being close.)

B1: human 4Ig-B7-H3 extracellular domain (amino acids: Gly27 – Thr461), recombinant (domain or fragment, UniProt Q5ZPR3 27-461, looked up)
chain: GALEVQVPEDPVVALVGTDATLCCSFSPEPGFSLAQLNLIWQLTDTKQLVHSFAEGQDQGSAYANRTALFPDLLAQGNASLRLQRVRVADEGSFTCFVSIRDFGSAAVSLQVAAPYSKPSMTLEPNKDLRPGDTVTITCSSYQGYPEAEVFWQDGQGVPLTGNVTTSQMANEQGLFDVHSILRVVLGANGTYSCLVRNPVLQQDAHSSVTITPQRSPTGAVEVQVPEDPVVALVGTDATLRCSFSPEPGFSLAQLNLIWQLTDTKQLVHSFTEGRDQGSAYANRTALFPDLLAQGNASLRLQRVRVADEGSFTCFVSIRDFGSAAVSLQVAAPYSKPSMTLEPNKDLRPGDTVTITCSSYRGYPEAEVFWQDGQGVPLTGNVTTSQMANEQGLFDVHSVLRVVLGANGTYSCLVRNPVLQQDAHGSVTITGQPMT
notes: B7-H3 (CD276), human, 4Ig isoform, extracellular domain, residues Gly27 – Thr461; commercial proteins of this kind often carry a C-terminal His tag (surmise); also called CD276; source: bought: R&D Systems (functionally active recombinant protein)
Take B1: the stoichiometry N (as a rule, the number of molecules, sites or subunits per partner or assembly) in data set [1] amounted to 2.

B2: murine 2Ig-B7-H3 extracellular domain (amino acids: Val29 – Phe244), recombinant (domain or fragment, UniProt Q8VE98 29-244, looked up)
chain: VEVQVSEDPVVALVDTDATLRCSFSPEPGFSLAQLNLIWQLTDTKQLVHSFTEGRDQGSAYSNRTALFPDLLVQGNASLRLQRVRVTDEGSYTCFVSIQDFDSAAVSLQVAAPYSKPSMTLEPNKDLRPGNMVTITCSSYQGYPEAEVFWKDGQGVPLTGNVTTSQMANERGLFDVHSVLRVVLGANGTYSCLVRNPVLQQDAHGSVTITGQPLTF
notes: B7-H3 (CD276), murine, 2Ig isoform, extracellular domain, residues Val29 – Phe244; also called murine B7-H3; source: bought: R&D Systems (functionally active recombinant protein)
As for B2, the “stoichiometry N” value in data set [1] amounted to 2.

B3: 4Ig-B7-H3-mEGFP, Q5ZPR3 29-534 (natural protein)
chain: LEVQVPEDPVVALVGTDATLCCSFSPEPGFSLAQLNLIWQLTDTKQLVHSFAEGQDQGSAYANRTALFPDLLAQGNASLRLQRVRVADEGSFTCFVSIRDFGSAAVSLQVAAPYSKPSMTLEPNKDLRPGDTVTITCSSYQGYPEAEVFWQDGQGVPLTGNVTTSQMANEQGLFDVHSILRVVLGANGTYSCLVRNPVLQQDAHSSVTITPQRSPTGAVEVQVPEDPVVALVGTDATLRCSFSPEPGFSLAQLNLIWQLTDTKQLVHSFTEGRDQGSAYANRTALFPDLLAQGNASLRLQRVRVADEGSFTCFVSIRDFGSAAVSLQVAAPYSKPSMTLEPNKDLRPGDTVTITCSSYRGYPEAEVFWQDGQGVPLTGNVTTSQMANEQGLFDVHSVLRVVLGANGTYSCLVRNPVLQQDAHGSVTITGQPMTFPPEALWVTVGLSVCLIALLVALAFVCWRKIKQSCEEENAGAEDQDGEGEGSKTALQPLKHSDSKEDDGQEIA
B3: in data set [2], the mEGFP fluorescence lifetime, bi-exponential fit, first fraction turned out to be 2.57 ns and the mEGFP fluorescence lifetime, bi-exponential fit, second fraction came to 1.33 ns.
